In PMC3325936:

Experiments:
[1] = molecular target: GST:Anillin (608–940) (human) (UniProt Q9NQW6); test: pull-down; lysates of transfected HEK-293 cells diluted by 0.5-fold, 0.25-fold or 0.05-fold, pulled down with 200 nM GST-tagged AHD; western blot for Myc, % bound protein
[2] = molecular target: GST:Anillin (608–940) (human) (UniProt Q9NQW6); test: pull-down; purified MBP- or GST-tagged anillin fragments (200 nM) as bait; lysates of transfected HEK-293 cells; 50 mM Tris pH7.6, 150 mM NaCl, 5 mM MgCl2, 0.5% Triton X-100, 1 mM DTT, 4°C; western blot for Myc

Sequence of UniProt Q9NQW6 (Q9NQW6 645-977): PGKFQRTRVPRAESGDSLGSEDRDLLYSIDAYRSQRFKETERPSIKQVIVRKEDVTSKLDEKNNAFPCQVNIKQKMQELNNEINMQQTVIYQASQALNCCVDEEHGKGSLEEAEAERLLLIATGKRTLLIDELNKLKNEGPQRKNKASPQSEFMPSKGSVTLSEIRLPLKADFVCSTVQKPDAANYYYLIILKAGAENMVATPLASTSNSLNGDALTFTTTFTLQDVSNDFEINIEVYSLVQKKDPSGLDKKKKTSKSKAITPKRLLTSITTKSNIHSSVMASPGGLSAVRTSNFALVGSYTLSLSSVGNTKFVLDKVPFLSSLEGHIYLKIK

| percent of protein bound at the lowest dilution [1] [%] | fold change of the amount pulled down against wild-type Ect2 (C-term) [2] [fold lower] | Substance |
| --- | --- | --- |
| 38 | – | Myc:Ect2 (421–883) (domain or fragment) |
| – | 0.5 | Myc:Ect2 (421–883; D668G) (domain or fragment) |
